{
  "source": "paper PMC3303851",
  "about": "“Structural Basis of Ets1 Cooperative Binding to Widely Separated Sites on Promoter DNA” (PLoS ONE, 2012)",
  "proteins": {"B1": {"name": "Ets1 (residues 280–441) (domain or fragment, UniProt P14921 280-441, looked up)", "chain": "VPSYDSFDSEDYPAALPNHKPKGTFKDYVRDRADLNKDKPVIPAAALAGYTGSGPIQLWQFLLELLTDKSCQSFISWTGDGWEFKLSDPDEVARRWGKRKNKPKMNYEKLSRGLRYYYDKNIIHKTAGKRYVYRFVCDLQSLLGYTPEELHAMLDVKPDADE", "notes": "also called Ets1 dimer; source: cloned, expressed and purified according to reported protocols [36]"}},
  "target": "the molecule itself",
  "test": "crystal structure; Ets1 280-441 mixed 1:1.05 with TCRα promoter dsDNA; (Ets1)2•2DNA crystals grown at 295 K, space group P2_(1), refined at 3.1 Å; asymmetric unit holds an Ets1 homodimer and two pieces of dsDNA",
  "data": [
    {"protein": "B1", "values": [
      {"measurement": "stoichiometry N", "result": 2}
    ]}
  ]
}
